PMC10515009, “A regulatory GhBPE-GhPRGL module maintains ray petal length in Gerbera hybrida”

Target: T1, GST-N-GhBPE (Gerbera hybrida)
T1 chain: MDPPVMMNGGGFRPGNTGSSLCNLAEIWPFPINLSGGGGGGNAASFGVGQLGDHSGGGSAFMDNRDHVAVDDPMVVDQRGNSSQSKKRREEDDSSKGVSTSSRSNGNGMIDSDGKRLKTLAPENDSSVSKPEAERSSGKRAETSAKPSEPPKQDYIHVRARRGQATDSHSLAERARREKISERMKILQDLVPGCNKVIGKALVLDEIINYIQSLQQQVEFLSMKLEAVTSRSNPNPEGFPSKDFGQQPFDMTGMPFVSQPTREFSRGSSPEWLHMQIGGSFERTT
Assay: EMSA; LightShift Chemiluminescent EMSA kit; buffer, salt, pH and temperature not stated (as Han et al. 2017)
Details: protein: recombinant; vector pET32-GST; label: 5' biotin (Methods); blunt

B1: MUT-probe2 (both JA response elements mutated) (dsDNA)
DNA 1: AACACATAAAAAAATCTGTGGTTTTATTGGTTTGTTATTTATCAGATACATTTTAAATATTTAATCGATAATCAAATTTTTTATTAAACACCCACCCCCA
DNA 2: TGGGGGTGGGTGTTTAATAAAAAATTTGATTATCGATTAAATATTTAAAATGTATCTGATAAATAACAAACCAATAAAACCACAGATTTTTTTATGTGTT
binding result: no binding
